Results: article PMC5147500 (2016)

Target: retromer (Homo sapiens, UniProt O75436)
Assay: ITC

Kd: ~127 µM
Binder: AQPELYLLNTMDADSLVSR (in presence of SNX3) [DMT1-II recycling signal]
